The text below walks through data of article PMC4529489.

In assay [1] the target is Human Ubc13, wild type (human). The assay can be described thus: ITC. Background: Isothermal titration calorimetry measures the heat released or taken up as one component is titrated into another.
The next assay has as its target Human Ubc13 R85S (human). The assay can be described thus: ITC.
A further assay deals with Ube2V2 (Homo sapiens) (UniProt Q15819). The settings on record: cited from earlier work.

The Kd is the constant that tells how readily two partners part at equilibrium.

In assay [1], Human Ube2V2 E20A (natural protein) displayed a fold increase of Kd against WT Ube2V2 of 4 times.

On to Human Ube2V2 (natural protein), for which the fold increase of Kd against WT Ubc13 with Human Ubc13 R85S (human) is more than 30 times.

Turning to Ubc13 (from UniProt P61088), in the assay with Ube2V2 (Homo sapiens), the Kd is 50 nM.
